From patent publication US8673313B2, “Cell penetrating peptides and its use fused to biomolecules with therapeutic action” (priority 2007, dated 2014)

How the values were obtained:
[1] = test system: cellular immune response against the antigen E7 de HPV-16; assay: ELISPOT anti-IFN-γ of splenocytes of immunized mice; type: in vivo, mice C57BL/6; conditions: 30 μg s.c., 2 doses every 14 days, without adjuvant
Experimental: In order to evaluate the cellular immune response against the antigen E7 de HPV-16, 4 groups of 3 mice females C57BL/6, from 6 to 8 weeks of born, received 2 doses of immunogens. The group 1 was immunized with the 30 μg of the recombinant protein LALF-E7; group 2 with the 30 μg of the recombinant protein E7; group 3 with 8 μg of synthetic peptide LALF and group 4 with PBS. The immunizations were made of subcutaneous way in the flank of the animal with volumes of 0.2 mL and without adjuvant. Every 14 days were administered two doses. Seven days after the second immunization, the mice were sacrificed by break-up of the cervical and the splenocytes were removed aseptically for their later analysis in a test of ELISPOT anti-gamma interferon (anti-IFN-γ). The cellular suspensions of the animals by each group met in pool and they were homogenized smoothly. […]
The test for the determination of the IFN-γ secretion was made as described previously (Vazquez-Blomquist D. et al. (2002) Induction of a strong HIV-specific CD8+ T cell response in mice using a fowlpox virus vector expressing an HIV-1 multi-CTL-epitope polypeptide. Viral Immunol. 5(2):337-356). […] After this time, the surviving cells counted and were used for determinations of ELISPOT under the same conditions.
The results were expressed as a number of spot forming cells (SFC) per 10^6 splenocytes. […]

[2] = test system: TC-1 tumor cell line expressing the HPV16 E7 protein; assay: Treatment of established TC-1 tumors in mice, fusion versus mix (Example 9); type: in vivo, Mice C57BL/6; conditions: two immunizations every 14 days from day 10, volume at the 30 days, p<0.01 vs LALF+E7, LALF, E7 and PBS, FIG. 8
Experimental: To study whether the antitumor effect of LALF-E7 was associated with the covalent bond of both molecules, we carried out experiments in which mice were treated for LALF and E7, which were mixed at the time prior to their use at equal molarity that would allow a comparison with mice that received the fusion protein LALF-E7.
In this realization, Mice C57BL/6 was inoculated with 2×10^5 cells by subcutaneous injection in right leg in volumes of 0.2 mL. To the 10 days, when all the animals had developed palpable tumors, the animals were assigned arbitrarily to five groups of treatments. Each group included 10 animals.
Two immunizations, every 14 days were made. The group 1 was immunized with the recombinant protein LALF-E7; group 2 with the mix LALF+E7: recombinant protein E7; group 3 with synthetic peptide LALF; group 4 with recombinant protein E7 and group 5 with PBS. The tumor kinetic in the different groups was followed as previously described in the example 8. The volume average of each group +/− the standard deviation at the 30 days is represented in the FIG. 8.

[3] = test system: TC-1 tumor cell line expressing the HPV16 E7 protein; assay: Treatment of established TC-1 tumors in mice (Example 8); type: in vivo, Mice C57BL/6; conditions: two immunizations every 14 days from day 10, volume at the 30 days, p<0.01 vs E7, LALF and PBS, FIG. 7
Description: In order to observe the regression of established tumors from the treatment with the recombinant protein fusion LALF-E7, the tumor cell line TC-1, was used. The TC-1 tumor cell line expressing the HPV16 E7 protein was derived from primary lung cells of C57Bl/6 mice by immortalization and transformation with HPV16 E6 and E7 genes and an activated human C-Ha-ras gene as described in Lin et al. (1996)) Treatment of established tumors with a novel vaccine that enhances major histocompatibility class II presentation of tumor antigen. Cancer Res. 56:21-26. For tumor inoculation, TC-1 cells, supplied by Dr. T.-C. Wu (The Johns Hopkins Medical Institutions, Baltimore, Md.), were grown to 60-70% confluence in RPMI1640 medium supplemented with 10% fetal calf serum (Hyclone, Logan, Utah), nonessential amino acids, glutamine, pyruvate, gentamycin, beta-mercaptoethanol and 0.4 mg/mL Geneticin at 37° C. Cells were harvested by trypsinization and resuspended in Hank's buffer solution at […].
Mice C57BL/6 was inoculated with 2×10^5 cells by subcutaneous injection in right leg in volumes of 0.2 mL. […] The tumor kinetic in the different groups was followed by the tumor volume which was determined using electronic calipers and taking the measures in two orthogonal dimensions. Tumor volumes (mm^3) were calculated from these measurements according to (length×width^2)/2. […]

B1: LALF-E7: recombinant fusion of CPP LALF to E7 protein of HPV 16, cysteine per glycine in Rb site (SEQ ID N0. 9 y 10) (protein)
chain: MAEFHYRIKPTFRRLKWKYKGKFWKASHGDTPTLHEYMLDLQPETTDLYGYEQLNDSSEEEDEIDGPAGQAEPDRAHYNIVTFCCKCDSTLRLCVQSTHVDIRTLEDLLMGTLGIVCPICSQKPGSRAHHHHHH
modifications: Artificial Sequence Description Protein fusion CPP LALF-E7
[1]
  T CD8+ lymphocyte response: effective response of T CD8^+ lymphocytes
[1]; splenocytes 7 days after second immunization, FIG. 9
  number of SFC (IFN-γ secretor cells) relative to the groups immunized with VSSP and PBS: ~8 times
[2]
  effect on volume of established tumors: effects in reducing the volume of tumors
[3]
  effect on growth of established tumors (tumor volume): full inhibition of growth of established tumors
